How the values were obtained:
[1] = target: recombinant Cas2C of Leptospira interrogans serovar Copenhageni (rLinCas2C) (L. interrogans serovar Copenhageni strain Fiocruz L1-130); assay: SEC; size-exclusion chromatography of the Ni-NTA purified recombinant protein; conditions not shown
[2] = target: recombinant Cas2C of Leptospira interrogans serovar Lai (rLinCas2C_Lai) (L. interrogans serovar Lai); assay: as above

Substance | stoichiometry N [1] | stoichiometry N [2]
recombinant Cas2C of Leptospira interrogans serovar Copenhageni (rLinCas2C) (enzyme) | 2 | –
recombinant Cas2C of Leptospira interrogans serovar Lai (rLinCas2C_Lai) (enzyme) | – | 3
